# US20210046117A1
# Like-named read-outs stand apart in the source and are kept apart here.
# What was measured:
# [1] = target: CD19 on CD19+ Raji B cells (UniProt P15391); experiment: cell-based or functional assay
# [2] = target: CD19 on CD19+ Raji B cells (UniProt P15391); experiment: cell-based or functional assay; remark: listed apart in the source
# Chain of UniProt P15391 (P15391 20-556 limits assumed): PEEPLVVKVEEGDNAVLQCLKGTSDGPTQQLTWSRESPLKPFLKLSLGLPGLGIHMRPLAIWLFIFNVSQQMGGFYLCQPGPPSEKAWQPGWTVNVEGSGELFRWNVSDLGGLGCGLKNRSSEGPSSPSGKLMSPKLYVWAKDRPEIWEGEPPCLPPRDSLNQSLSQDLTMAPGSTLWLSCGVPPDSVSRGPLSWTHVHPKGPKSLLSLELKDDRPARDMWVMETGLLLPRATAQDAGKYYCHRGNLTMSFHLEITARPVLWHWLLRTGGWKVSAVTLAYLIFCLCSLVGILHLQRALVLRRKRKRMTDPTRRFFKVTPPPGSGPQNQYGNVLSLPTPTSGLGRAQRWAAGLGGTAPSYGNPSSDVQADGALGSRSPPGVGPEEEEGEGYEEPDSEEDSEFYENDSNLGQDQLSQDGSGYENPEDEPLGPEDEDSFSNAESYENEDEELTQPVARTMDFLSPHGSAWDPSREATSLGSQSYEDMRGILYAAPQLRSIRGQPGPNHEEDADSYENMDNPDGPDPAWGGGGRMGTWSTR
substance,measurement,setting,value
anti-CD19 CAR (anti-CD19 CAR cassette as described in WO 2012/079000) (receptor),"activated cells in the population (CD25 and CD69 activation markers, flow cytometry, 24h co-culture)",[1],3.9 to 12.1%
same,"activated cells in the population (CD25 and CD69 activation markers, flow cytometry, 24h co-culture)",[2],0.9 to 84.8%
